Results from patent publication US20130189218A1, “PHARMACEUTICAL FORMULATIONS FOR FUMAGILLIN DERIVATIVE-PHF CONJUGATES” (Mersana Therapeutics, Inc., priority 2011, published 2013).

What was measured:
Type in all cases: physicochemical
[1] = Solution appearance of Composition C batches
Procedure: Physical properties of select Composition C batches were measured as described in the Methods section.

[2] = HPSEC trace / molecular weight distribution of different Compound D loading conjugates
Procedure: (§1) The molecular weight distributions of Composition C conjugate, PHF and PHF-GA were measured by high performance size exclusion chromatography (HPSEC) with RI detection. Separation was carried out on a GE Healthcare Superose 6 column using 50 mM pH=7.4 phosphate 0.9% NaCl as an fluent. Dextran standards (American Polymer Standards Corporation) were used to establish a calibration curve of known molecular weight vs. retention time. Molecular weight distributions (weight average molecular weight (“Mw”), D90, D50, D10) were calculated based on the polysaccharide standard curve.
Composition C batches were analyzed by high performance size exclusion chromatography. […] Batches B and E have the additional desirable property of relatively high Compound D loading; approximately 3-fold higher than Batches C and F.

[3] = Peak molecular weight at ~3 and ~60 mg/ml (concentration dependence)
Procedure: as §1
Peak molecular weight values were measured for Composition C batches in solution at ˜3 mg/ml and at ˜60 mg/ml.

With `CO[C@H]1[C@H](C2(C)OC2CC=C(C)C)[C@]2(CC[C@H]1OC(=O)NCc1ccc(NC(=O)CCCC(=O)O)cc1)CO2` (some centres unmarked) [Compound D] the “Solution Appearance” value [1] was “Very slight”, the “SEC Trace” value [2] was 2 peaks (high and the “% Change” value ([3]; Mp at ~60 mg/ml vs ~3 mg/ml) was “+58%”. The Mp at ~3 mg/ml ([3]; ~3 mg/ml in solution) was 57.8 kDa and the Mp at ~60 mg/ml ([3]; ~60 mg/ml in solution) was 91.2 kDa.
